T1: Recombinant TGFBI (transforming growth factor-beta-induced protein) (UniProt Q15582 24-683)
T1 construct: Transforming growth factor-beta-induced protein (TGFBI, βig-H3); cDNA inserted into the EcoRV and EcoRI sites of pET-29b; also called βig-H3; keratoepithelin; source: E. coli, IPTG-induced, purified (Ni-NTA column, dialyzed)
T1 sequence (looked up): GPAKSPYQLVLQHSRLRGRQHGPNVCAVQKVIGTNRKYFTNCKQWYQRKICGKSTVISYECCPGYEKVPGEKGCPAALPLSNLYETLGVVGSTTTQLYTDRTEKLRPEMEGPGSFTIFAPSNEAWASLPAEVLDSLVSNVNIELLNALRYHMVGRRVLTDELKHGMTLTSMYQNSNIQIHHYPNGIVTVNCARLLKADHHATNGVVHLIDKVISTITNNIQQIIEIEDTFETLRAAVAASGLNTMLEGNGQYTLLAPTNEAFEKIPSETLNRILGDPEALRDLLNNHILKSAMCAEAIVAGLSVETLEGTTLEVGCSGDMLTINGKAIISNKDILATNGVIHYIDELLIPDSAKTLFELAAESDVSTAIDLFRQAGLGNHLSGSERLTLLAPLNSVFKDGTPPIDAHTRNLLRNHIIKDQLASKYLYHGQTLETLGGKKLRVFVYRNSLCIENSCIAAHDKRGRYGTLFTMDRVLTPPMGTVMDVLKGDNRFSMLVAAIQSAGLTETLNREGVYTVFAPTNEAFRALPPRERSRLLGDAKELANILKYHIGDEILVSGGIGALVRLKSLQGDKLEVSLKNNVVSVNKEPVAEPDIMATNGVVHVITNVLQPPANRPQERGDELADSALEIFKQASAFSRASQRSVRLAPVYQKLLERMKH

T2: Recombinant Notch-1 protein (UniProt P46531 19-2555)
T2 chain: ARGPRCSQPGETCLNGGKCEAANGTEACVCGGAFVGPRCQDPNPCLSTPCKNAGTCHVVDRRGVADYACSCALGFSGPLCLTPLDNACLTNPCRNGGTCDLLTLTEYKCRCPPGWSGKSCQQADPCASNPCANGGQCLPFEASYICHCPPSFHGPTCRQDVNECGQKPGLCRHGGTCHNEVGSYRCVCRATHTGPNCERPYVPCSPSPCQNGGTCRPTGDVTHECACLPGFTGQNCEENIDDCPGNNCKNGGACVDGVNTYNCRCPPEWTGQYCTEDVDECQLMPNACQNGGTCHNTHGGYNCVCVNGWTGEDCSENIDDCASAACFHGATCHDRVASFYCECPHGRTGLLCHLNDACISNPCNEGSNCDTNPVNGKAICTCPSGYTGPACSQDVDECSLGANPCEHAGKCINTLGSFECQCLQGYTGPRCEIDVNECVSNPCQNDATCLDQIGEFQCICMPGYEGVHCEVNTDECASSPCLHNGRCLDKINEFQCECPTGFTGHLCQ


Key:
[1] = target: T1, Recombinant TGFBI (transforming growth …); assay: ELISA; recombinant Notch-1 (2 g/ml as printed, in PBS) coated on 96-well polystyrene plates at RT overnight; blocked with 1% BSA in PBS; Jagged-1 or TGFBI added at 0 to 2000 ng/ml; biotinylated antibodies, streptavidin-HRP, OD 450 nm; Kd (nM) = ED50 (ng/mL)/molecular weight of binding protein; settings: both partners purified
[2] = target: T2, Recombinant Notch-1 protein; assay: ELISA

Kd [1] [nM]	EC50 [2] [µg/mL]	Binder
3.18		Recombinant Notch-1 protein (receptor, Species, supplier and limits not stated. Human assumed (mouse Q01705 is possible). Limits follow the usual commercial recombinant Notch-1 ectodomain fragment (N-terminal EGF repeats including …)) ARGPRCSQPGETCLNGGKCEAANGTEACVCGGAFVGPRCQDPNPCLSTPCKNAGTCHVVDRRGVADYACSCALGFSGPLCLTPLDNACLTNPCRNGGTCDLLTLTEYKCRCPPGWSGKSCQQADPCASNPCANGGQCLPFEASYICHCPPSFHGPTCRQDVNECGQKPGLCRHGGTCHNEVGSYRCVCRATHTGPNCERPYVPCSPSPCQNGGTCRPTGDVTHECACLPGFTGQNCEENIDDCPGNNCKNGGACVDGVNTYNCRCPPEWTGQYCTEDVDECQLMPNACQNGGTCHNTHGGYNCVCVNGWTGEDCSENIDDCASAACFHGATCHDRVASFYCECPHGRTGLLCHLNDACISNPCNEGSNCDTNPVNGKAICTCPSGYTGPACSQDVDECSLGANPCEHAGKCINTLGSFECQCLQGYTGPRCEIDVNECVSNPCQNDATCLDQIGEFQCICMPGYEGVHCEVNTDECASSPCLHNGRCLDKINEFQCECPTGFTGHLCQ
	0.452	Recombinant TGFBI (transforming growth factor-beta-induced protein) (natural protein, Species, supplier and limits not stated. Human assumed (mouse Q01705 is possible). Limits follow the usual commercial recombinant Notch-1 ectodomain fragment (N-terminal EGF repeats including ligand-binding EGF 11-12), recalled rather than printed; any Fc carrier omitted.) GPAKSPYQLVLQHSRLRGRQHGPNVCAVQKVIGTNRKYFTNCKQWYQRKICGKSTVISYECCPGYEKVPGEKGCPAALPLSNLYETLGVVGSTTTQLYTDRTEKLRPEMEGPGSFTIFAPSNEAWASLPAEVLDSLVSNVNIELLNALRYHMVGRRVLTDELKHGMTLTSMYQNSNIQIHHYPNGIVTVNCARLLKADHHATNGVVHLIDKVISTITNNIQQIIEIEDTFETLRAAVAASGLNTMLEGNGQYTLLAPTNEAFEKIPSETLNRILGDPEALRDLLNNHILKSAMCAEAIVAGLSVETLEGTTLEVGCSGDMLTINGKAIISNKDILATNGVIHYIDELLIPDSAKTLFELAAESDVSTAIDLFRQAGLGNHLSGSERLTLLAPLNSVFKDGTPPIDAHTRNLLRNHIIKDQLASKYLYHGQTLETLGGKKLRVFVYRNSLCIENSCIAAHDKRGRYGTLFTMDRVLTPPMGTVMDVLKGDNRFSMLVAAIQSAGLTETLNREGVYTVFAPTNEAFRALPPRERSRLLGDAKELANILKYHIGDEILVSGGIGALVRLKSLQGDKLEVSLKNNVVSVNKEPVAEPDIMATNGVVHVITNVLQPPANRPQERGDELADSALEIFKQASAFSRASQRSVRLAPVYQKLLERMKH

Reference: publication PMC10073093, “TGFBI remodels adipose metabolism by regulating the Notch-1 signaling pathway” (Experimental & Molecular Medicine, 2023)
